Entries after “also recorded” stand apart in the source; their conditions may differ.
Tests used:
[1] = elevated salt, dilution, extended storage; cited from earlier work
[2] = cited from earlier work
[3] = test system: C. difficile Strain 630; experiment: Bioassay to measure sporulation (spore and total cell CFU/ml); assay type: cell-based, Clostridium difficile
Procedure: All procedures were performed under anaerobic conditions at room temperature unless otherwise stated. All media and agar plates used were placed in an anaerobic chamber at least 24 hours prior to use. A standard bioassay to measure sporulation was performed using untreated cells, those mixed with nanoparticles consisting of either the Spo0A TFD or empty nanoparticles (containing no TFDs), to determine the effect on C. difficile Strain 630 (a laboratory reference strain that has been sequenced).
An initial overnight culture was generated by mixing 100 μl of a glycerol stock of C. difficile (consisting of spore cells of frozen in 10% glycerol and stored at −20° C.) with 10 ml Robertson's Cooked Meat Medium (Robertson (1916) J. Path. Bacteria 20: 327-349). The following day, 10 ml BHIS media (Brain Heart Infusion media, (McFaddin J. F. (1985) Media for Isolation-Cultivation-Identification-Maintenance of medical Bacteria, Vol. I, Williams and Wilkins, Baltimore) supplemented with 0.1% L-cysteine) was inoculated with 1% of the culture grown in Robertson's (consisting mostly of spore cells). […] 100 μl of this culture was used to inoculate 10 ml of BHIS which was allowed to grow until it had reached an OD600 of approximately 0.3. At this stage the growth is due to germination of spores and consists mainly of exponentially growing vegetative cells. This culture was then used to inoculate the experimental cultures that were performed in triplicate in 10 ml cultures in BHIS incubated at 37° C. The three conditions used were: A) untreated cells; B) treated with 1% (v/v) empty nanoparticles to give a final concentration of 8 μg/ml compound 7—12; C) nanoparticles loaded with Spo0A TFD to give final concentrations of 8 μg/ml compound 7—12 and 0.4 μg/ml TFD.
Aliquots were withdrawn from the cultures at TO, 24, 48, 72 and 96 h and used to calculate the total cell density and spore cell density.
Calculation of Spore Cell Density To measure the number of Colony Forming Units per ml of culture (CFU/ml) of spore cells, a 0.5 ml aliquot was withdrawn and exposed to anaerobic conditions for 25 minutes at 60° C. This heat shock step efficiently kills the vegetative cells but not the spores. A serial dilution of the treated sample was prepared in PBS buffer (Phosphate Buffered Saline) over a range of 10^−1 to 10^−6. 10 μl of each dilution was spotted in duplication onto BHIS plates supplemented with 0.1% taurocholate (which enhances germination), the spots allowed to dry and the plates incubated for 24 h at 37° C. The number of colonies was then counted and the CFU/ml of original culture calculated.
To measure CFU/ml of total cells, meaning vegetative cells plus spore cells, a 0.5 ml aliquot was withdrawn and exposed to anaerobic conditions for 25 minutes at room temperature (to control for the time taken to heat shock the spore sample). The samples were then processed as described above.

[4] = test system: C. difficile; experiment: Minimum Inhibitory Concentration (MIC) method; details: with reference to the compound 7—12 component; 24-well plates, 2 ml BHIS; 1 nM SigH TFD in the loaded nanoparticle; FIG. 7
Procedure: Growth was determined by the Minimum Inhibitory Concentration (MIC) method (Wiegand (2008) Nature Protocols 3: 163-175). Essentially, the antibiotic is diluted to the point where it is ineffective and is no longer able to prevent growth, as judged by the media remaining clear. For C. difficile, these experiments were performed in duplicate in 24-well cell plates containing 2 ml BHIS media with various concentrations of empty nanoparticles or those loaded with the SigH TFD.

[5] = test system: C. difficile; experiment: Cell growth by Optical Density at 600 nm (Example 2); assay type: cell-based, Clostridium difficile; details: OD 600 nm; FIG. 4
Procedure: (§1) Conditions of cell growth were as described in Example 1, with care being taken to ensure that the experimental culture consisted of early-exponential vegetative cells that would enter stationary phase during the course of the experiment. Toxin production is developmentally controlled and only beings to occur as cells enter this phase.
Optical Density was measured at 600 nm in a standard spectrophotometer quantified cell growth.

[6] = test system: Toxins A and B (encoded by tcdAB) in C. difficile; experiment: Premier ToxinA&B ELISA of toxin production; assay type: cell-based, Clostridium difficile; details: FIG. 5
Procedure: A commercially available ELISA kit (Enzyme-Linked Immunosorbent Assay), Premier™ ToxinA&B, was obtained from Meridian Bioscience Inc. All assays were performed following manufacturers instructions.
as §1
The absorbance of the cells was used to assay an equal amount of biomaterial in each experiment using the described ELISA kit. […] This was set at 100% activity and all other samples were compared to this (FIG. 5). […] At 48 h, where maximal production is expected, only 22% of the untreated level of production was achieved. The maximum level of production for the treated cells was 32% at 72 h.

[7] = test system: C. difficile; experiment: Cell growth by Optical Density at 420 nm (Example 3); assay type: cell-based, Clostridium difficile; details: absorbance 420 nm, over the time course; FIG. 6
Procedure: Optical Density was measured at 420 nm in a standard spectrophotometer quantified cell growth.

Nc1c2c([n+](CCCCCCCCCC[n+]3c4c(c(N)c5ccccc53)CCCC4)c3ccccc13)CCCC2.[Cl-].[Cl-] [Compound 7, 10,10′-(decane-1,10-diyl)bis(9-amino-1,2,3,4-tetrahydroacridinium)dichloride]
stability of complexes formed [1]: forms more stable complexes | in vitro toxicity relative to dequalinium [2]: lower toxicity in vitro compared to dequalinium; also recorded: less in vitro toxicity than dequalinium

B1: SigH TFD: dumbbell TFD from SigH DB1/DB2 with binding sites for both Spo0A and SigH, delivered in compound 7—12 nanoparticles (nucleic acid)
chain 1: CTTGGTTTTTCCAAGTAATACGACAAACTAGTTAAATTTCATTGAAGGAATAAAAATATAATTATAGAATTGATTA
chain 2: GCCTCTTTTTGAGGCTAATCAATTCTATAATTATATTTTTATTCCTTCAATGAAATTTAACTAGTTTGTCGTATTA
modifications: dumbbell decoy delivered in nanoparticles, further chemistry not given here
effect on sporulation (in words) ([3]; time course similar to Example 1, FIG. 8): block sporulation significantly | MIC [4]: 3.4 nM

B2: TcdR TFD: dumbbell TFD from TcdRDB1/TcdRDB2 with TcdR recognition site, delivered in compound 7—12 nanoparticles (nucleic acid)
chain 1: CTTGGTTTTTCCAAGAAGTTTACAAAATTATATTAGAATAACTTTTTATT
chain 2: CCCTCTTTTTGAGGGAATAAAAAGTTATTCTAATATAATTTTGTAAACTT
modifications: dumbbell, delivered in nanoparticles, chemistry not fully specified
notes: dumbbell TFD from TcdRDB1/TcdRDB2 with TcdR recognition site, delivered in compound 7—12 nanoparticles
cell growth (growth curves, in words) [5]: failed to grow in a manner similar to untreated cells | toxin production, % of untreated level ([6]; at 48 h, untreated cells at 48 h set at 100%): 22% | maximum level of toxin production, % of untreated 48 h level ([6]; at 72 h, untreated cells at 48 h set at 100%): 32% | pattern of Toxins production (in words) ([6]; time course): produces much less of the Toxins

B3: Spo0A TFD: dumbbell TFD from Spo0ADB1/Spo0ADB2 with Spo0A binding site, delivered in compound 7—12 nanoparticles (nucleic acid)
chain 1: CTTGGTTTTTCCAAGAGCTTGTGTAGAAGGTTGTCCACAAGTTGTGAAATTTGTCGAAAAGCTATTTATC
chain 2: CCCTCTTTTTGAGGGGATAAATAGCTTTTCGACAAATTTCACAACTTGTGGACAACCTTCTACACAAGCT
modifications: dumbbell decoy delivered in nanoparticles, further chemistry not given here
density of spores ([3]; after heat shock 25 minutes at 60° C., 8 μg/ml compound 7—12 and 0.4 μg/ml TFD, FIG. 3): 1.54×10^2 CFU/ml | effect on sporulation (in words) ([3]; delivery to cells with nanoparticles, Example 1): strong inhibition of sporulation | spores as percentage of total cells ([3]; treated samples, FIG. 3): < 8.66×10^−5% | reduction of sporulation relative to untreated culture ([3]; treated versus untreated, FIG. 3): six-fold | density of total cells ([3]; vegetative cells plus spore cells, nanoparticles giving 8 μg/ml compound 7—12 and 0.4 μg/ml TFD, BHIS, 37° C., FIG. 3): 1.78×10^8 CFU/ml

B4: FapR TFD: dumbbell TFD from FapRDB1/FapRDB2 with FapR recognition site, delivered in compound 7—12 nanoparticles (nucleic acid)
chain 1: CTTGGTTTTTCCAAGTAGAATTAGTACCTGATACTAATAATT
chain 2: GCCTCTTTTTGAGGCAATTATTAGTATCAGGTACTAATTCTA
modifications: nanoparticle delivery, chemistry not fully specified
notes: dumbbell TFD from FapRDB1/FapRDB2 with FapR recognition site, delivered in compound 7—12 nanoparticles
cell growth (growth curves, in words) [7]: failed to grow over the time course of the experiment
